Literature values, collected in article PMC8002405.

Target: Human neonatal Fc receptor (hFcRn) (UniProt P55899+P61769)
Assay: microscale thermophoresis (MST)
Settings: pH 5.5

KD: 900 nM
Substance: Human IgG1 (wild type)
